Results as given in patent US20190023809A1, “ANTI-NICOTINAMIDE PHOSPHORIBOSYLTRANSFERASE ANTIBODY GENES AND METHODS OF USE THEREOF” (The Children's Mercy Hospital, priority 2015, published 2019).

B1: Ab2: anti-NAMPT single-chain variable fragment antibody clone, 249 amino acids, SEQ ID NO 3/4, in pCAGGS expression vector (protein, listed as Homo sapiens)
scFv: MEVQLLESGGGLVQPGGSLRLSCAASGFAFSSYAMSWVRQAPGKGLEWVSNISGRGAKTTYADSVKGRFTISRDNSKNTLYLQMNSLRAEDTAVYYCAKTYLVFDYWGQGTLVTVSSGGGGSGGGGSGGGGSTDIQMTQSPSSLSASVGDRVTITCRASQSISSYLNWYQQKPGKAPKLLIYRASSLQSGVPSRFSGSGSGTDFTLTISSLQPEDFATYYCQQISATPTTFGQGTKVEIKRAAHHHHHH
modifications: (32)..(36) CDR1; (41)..(60) CDR2 scFv2; (90)..(96) CDR3 scFv3; (108)..(122) 15-mer linker sequence; (147)..(157) CDR4; (173)..(180) CDR5 scFv2; (214)..(220) CDR6 scFv2; (234)..(239) Histidine Tag
B2: Ab1: anti-NAMPT single-chain variable fragment antibody clone, 247 amino acids, SEQ ID NO 1/2, in pCAGGS expression vector (protein, listed as Homo sapiens)
scFv: MEVQLLESGGGLVQPGGSLRLSCAASGFTFSSYAMSWVRQAPGKGLEWVSVINVPGNRTSYADSVKGRFTISRDNSKNTLYLQMNSLRAEDTAVYYCAKKTRRFDYWGQGTLVTVSSGGGGSGGGGSGGGGSTDIQMTQSPSSLSASVGDRVTITCRASQSISSYLNWYQQKPGKAPKLLIYGASVLQSGVPSRFSGSGSGTDFTLTISSLQPEDFATYYCQQRVRSPATFGQGTKVEIKRHHHHHH
modifications: (32)..(36) CDR1; (51)..(70) CDR2 scFv1; (99)..(105) CDR3 scFv1; (157)..(167) CDR4; (183)..(189) CDR5 scFv1; (224)..(230) CDR6 scFv1; (242)..(247) Histidine Tag

What was measured:
[1] = tested on: SP-B; test: SP-B expression in H441 cells pretreated with FK866, without or with TNF-α (western blot); assay type: cell-based, human
Description: FIG. 21 illustrates NAMPT inhibited SP-B expression via both its nonenzymatic and enzymatic activity. (A) H441 cells were transfected with either pCAGGS, pCAGGS-hNAMPT or pCAGGS-H247E. Cell lysate of NAMPT (10 μg), SP-B (30 μg) and GAPDH (10 μg) proteins were detected by western blot. Protein bands were quantified by densitometry using image J, and NAMPT levels (B) and SP-B levels (C) were normalized to GAPDH levels. Values are means±SD of 3 independent experiments. *p<0.05 vs. pCAGGS cells; #p<0.05 vs pCAGGS-hNAMPT cells. (D) H441 cells were pretreated with different doses of FK866 for 6 h before treatment without or with TNF-α (25 ng/ml) for 24 hours. Cell lysate of NAMPT (10 μg), SP-B (30 μg) and GAPDH (10 μg) proteins were detected by western blot. Protein bands were quantified by densitometry using image J, and NAMPT levels (E) and SP-B levels (F) were normalized to GAPDH levels. Values are means±SD of 3 independent experiments. *p<0.05 vs cells without FK866 or rhTNF-α treatment. #p<0.05 vs cells pretreated with FK866 but without rhTNF-α treatment;
This example determined that NAMPT inhibits SP-B expression mainly via its nonenzymatic activity and partly via its enzymatic activity. […]

[2] = tested on: CIA; settings: CIA mice; cited from earlier work
[3] = cited from earlier work
[4] = tested on: 3T3-L1 cells; test: MTS / CellTiter 96 AQueous One cell proliferation assay in transfected 3T3-L1 cells; assay type: cell-based, mouse; settings: for decreased proliferation as compared to the pCAGGS control population: fibroblasts, FIG. 1C; for proliferation of mouse 3T3: transfected cells, preliminary result
Description: FIG. 1C is a graphic representation of the results of assay of cell proliferation of 3T3-L1 cells transfected with scFV1 and scFv2 or pCAGGS control. After 72 h, cell proliferation was assayed by CellTiter 96® AQueous One Solution Cell Proliferation Assay (Promega, cat #G3582). Values are means±SD, N=12, * p≤0.001;
(§1) In one embodiment of the present disclosure, as best shown in FIG. 1A, the cDNA for each single-chain variable fragment (scFv) antibody was cloned, including a histidine tag on the 3′ end, into the pCAGGS expression vector. The VH and VL fragments for each scFv are separated by a (G4S)3 linker and encode proteins of 247 and 249 amino acids, respectively for NAMPT-scFv1 (antibody 1 or Ab1) and scFv2 (antibody 2 or Ab2) (FIG. 1B). To test the anti-NAMPT ability of each construct, MTS assays were performed in transfected 3T3-L1 (ATCC CL-173™) and RAW 264.7 (ATCC® TIB-71™) cells.
We expressed and purified recombinant mouse NAMPT protein and obtained two human against mouse NAMPT antibody gene clones, termed NAMPT-scFv1 (Ab1) and -scFv2 (Ab2), by screening a HuScL-2™ Phage Display Naïve Human scFv Library (www.creative-biolabs.com/). We cloned the cDNAs for each scFv, including a histidine-tag on the 3′ end, into the pCAGGS expression vector. The VH and VL fragments for each scFv are separated by a (G4S)3 linker and encode proteins of 247 and 249 amino acids, respectively for NAMPT-scFv1 and -scFv2. To test the anti-NAMPT ability of each construct, we performed MTS assays in transfected 3T3-L1 (ATCC® CL-173™) and RAW 264.7 (ATCC® TIB-71™) cells. […] To increase the specificity of these constructs we generate a hetero-dimer and a hetero-tetramer using established procedures. The hetero-dimer [scFv1-scFv2], also called a di-body, is separated by a GGSSRSSSSGGGGSGGGG linker. The hetero-tetramer, also called a tetra-body, consists of two dimers [scFv1-scFv2]2 joined by the HIV1 P21 capsid protein linker, GATPQDLNTML. The P21 linker is an epitope for the murine monoclonal CB4-1 antibody. […] Thus, we utilize the CB4-1 antibody and nickel-columns (His-Tag) to manipulate and purify our recombinant scFv antibodies. We enhance the specificity and tertiary structures of the di-body and tetra-body by modifying the type and length of the linker sequences. Their antisense clone of NAMPT-scFv1 and -scFv2 is used as controls. Since similar effects in in vitro assay were observed, only NAMPT-scFv1 and its antisense clone are used to prepare the constructs under the control of either the human MRP8 promoter or mouse MPO promoter for tissue specific expression in neutrophils or neutrophils and monocytes, respectively.

[5] = tested on: macrophage cell lines; test: MTS proliferation assay in transfected macrophage cell lines (RAW 264.7); assay type: cell-based, mouse; settings: data not shown
From the text: as §1
We expressed and purified recombinant mouse NAMPT protein and obtained two human against mouse NAMPT antibody gene clones, termed NAMPT-scFv1 (Ab1) and -scFv2 (Ab2), by screening a HuScL-2™ Phage Display Naïve Human scFv Library (www.creative-biolabs.com/). We cloned the cDNAs for each scFv, including a histidine-tag on the 3′ end, into the pCAGGS expression vector. The VH and VL fragments for each scFv are separated by a (G4S)3 linker and encode proteins of 247 and 249 amino acids, respectively for NAMPT-scFv1 and -scFv2. To test the anti-NAMPT ability of each construct, we performed MTS assays in transfected 3T3-L1 (ATCC® CL-173™) and RAW 264.7 (ATCC® TIB-71™) cells. […] To increase the specificity of these constructs we generate a hetero-dimer and a hetero-tetramer using established procedures. […]

[6] = tested on: human a549 cell; test: Proliferation of human a549 cell (data not shown); assay type: cell-based
[7] = Cell culture experiments: cell death; assay type: cell-based
From the text: as §1

[8] = tested on: cell NAD synthesis; test: NAD synthesis by transfected 3T3-L1 cells (Amplite Fluorimetric NAD/NADH Ratio Assay Kit); assay type: cell-based, mouse
Description: FIG. 1D is a graphic representation of the results of assay of NAD synthesis by 3T3-L1 cells transfected with scFv1 or pCAGGS control. After 72 h NAD synthesis was measured by Amplite™ Fluorimetric NAD/NADH Ratio Assay Kit (AAT Bioquest®, Inc. prod. number 15263). Values are means±SD, N=4, p≤0.005. Ab1, antibody 1; Ab2, antibody 2;
as §1

Molecule	rescue of TNF-α induced inhibition of SP-B ([1]; FK866 6 h then TNF-α 25 ng/ml 24 hours)	SP-B expression ([1]; FK866 pretreatment 6 h)	severity and progression of arthritis [2]	side effect in humans [3]	cell proliferation, FIG. 1C values (Avg±SD) ([4]; 3T3-L1 cells transfected, after 72 h, pCAGGS control, N=12) [%+4.6]	decreased proliferation as compared to the pCAGGS control population [4]	proliferation of mouse 3T3 [4]	proliferation of macrophage cell lines [5]	proliferation of human a549 cell [6]	cell death [7]	NAD synthesis, FIG. 1D values (Avg±SD) ([8]; 3T3-L1 cells transfected, after 72 h, pCAGGS control, N=4) [%+10.4]	cell NAD synthesis ([8]; transfected cells)
O=C(/C=C/c1cccnc1)NCCCCC1CCN(C(=O)c2ccccc2)CC1 [FK866]	did not significantly rescue	increased	effectively reduce	thrombocytopenia	–	–	–	–	–	–	–	–
B1	–	–	–	–	49.8	about 50%	inhibit proliferation	inhibit proliferation	inhibited proliferation	induce cell death	–	–
B2	–	–	–	–	–	about 50%	inhibit proliferation	inhibit proliferation	inhibited proliferation	induce cell death	68.3	inhibited cell NAD synthesis
